Data taken from article PMC10397247.
Like-named read-outs stand apart in the source and are kept apart here.

T1: P6-AA-12HAA-R
T1 chain: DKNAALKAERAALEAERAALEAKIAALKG

T2: P6-AA-12HAA-Y
T2 chain: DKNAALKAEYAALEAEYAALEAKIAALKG

T3: P6-AA-12HAA-D
T3 chain: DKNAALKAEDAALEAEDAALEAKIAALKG

T4: P6-AA-12HAA-T
T4 chain: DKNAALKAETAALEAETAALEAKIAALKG

T5: P6-AA-12HAA-K
T5 chain: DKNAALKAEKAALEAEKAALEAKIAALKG

T6: P6-AA-12HAA-L
T6 chain: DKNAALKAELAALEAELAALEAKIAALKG

T7: P6-AA-1HAA-N
T7 chain: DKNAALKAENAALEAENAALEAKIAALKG

T8: P6-AA-12HAA-S
T8 chain: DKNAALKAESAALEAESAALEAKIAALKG

T9: P6-AA-12HAA-H
T9 chain: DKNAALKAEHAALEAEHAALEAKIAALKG

T10: P6-AA-12HAA-E
T10 chain: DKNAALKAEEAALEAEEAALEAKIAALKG

T11: P6-AA-12HAA-V
T11 chain: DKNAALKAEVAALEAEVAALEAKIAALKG

B1: P5-AA-12HAA-A (peptide)
chain: DENAALEAKAAALKAKAAALKAEIAALEG
B2: P5-AA-12HAA-R (peptide)
chain: DENAALEAKRAALKAKRAALKAEIAALEG
B3: P5-AA-12HAA-E (peptide)
chain: DENAALEAKEAALKAKEAALKAEIAALEG
B4: P5-AA-12HAA-Y (peptide)
chain: DENAALEAKYAALKAKYAALKAEIAALEG
B5: P5-AA-12HAA-D (peptide)
chain: DENAALEAKDAALKAKDAALKAEIAALEG
B6: P5-AA-12HAA-T (peptide)
chain: DENAALEAKTAALKAKTAALKAEIAALEG

Legend:
Experiment in all cases: two-hybrid library CCmax;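 further: natural log of median RNA to DNA barcode read ratio; higher means stronger binding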
P6-AA-12HAA-R = target: T1, P6-AA-12HAA-R; conditions: mean of both orientations
P6-AA-12HAA-Y = target: T2, P6-AA-12HAA-Y
P6-AA-12HAA-D = target: T3, P6-AA-12HAA-D; conditions: mean of both orientations
P6-AA-12HAA-T = target: T4, P6-AA-12HAA-T
P6-AA-12HAA-K = target: T5, P6-AA-12HAA-K
P6-AA-12HAA-L = target: T6, P6-AA-12HAA-L; conditions: mean of both orientations
P6-AA-1HAA-N = target: T7, P6-AA-1HAA-N; conditions: mean of both orientations
P6-AA-12HAA-S = target: T8, P6-AA-12HAA-S; conditions: mean of both orientations
P6-AA-12HAA-H = target: T9, P6-AA-12HAA-H; conditions: mean of both orientations
P6-AA-12HAA-E = target: T10, P6-AA-12HAA-E; conditions: mean of both orientations
P6-AA-12HAA-V = target: T11, P6-AA-12HAA-V; conditions: mean of both orientations

Row | Binder | interaction score (P6-AA-12HAA-R) | interaction score (P6-AA-12HAA-Y; mean of both orientations) | interaction score (P6-AA-12HAA-D) | interaction score (P6-AA-12HAA-T; mean of both orientations) | interaction score (P6-AA-12HAA-K) | interaction score (P6-AA-12HAA-L) | interaction score (P6-AA-1HAA-N) | interaction score (P6-AA-12HAA-S) | interaction score (P6-AA-12HAA-H) | interaction score (P6-AA-12HAA-E) | interaction score (P6-AA-12HAA-V) | interaction score (P6-AA-12HAA-K; mean of both orientations) | interaction score (P6-AA-12HAA-T) | interaction score (P6-AA-12HAA-Y)
1 | B1 | -2.54 | -0.289 | -1.63 | -0.646 | -1.98 | 1.96 | -1.39 | -1.71 | -1.86 | -1.81 | 1.95 | – | – | –
2 | B2 | -1.5 | -1.07 | -1.88 | -0.88 | – | 1.4 | 0.341 | -1.83 | -1.83 | -1.43 | 2.1 | -1.69 | – | –
3 | B3 | -2.01 | -1.59 | -1.48 | -1.32 | – | -0.949 | -1.74 | -1.39 | -1.89 | -1.42 | 0.123 | -2.37 | – | –
4 | B4 | -1.41 | 1.48 | -1.3 | – | – | 2.06 | -0.0879 | -1.4 | -1.67 | -1.65 | 2.38 | -1.55 | -0.448 | –
5 | B5 | -1.55 | – | -1.47 | -1.41 | – | -1.56 | -1.68 | -1.67 | -1.57 | -1.97 | -1.32 | -1.61 | – | -1.95
6 | B6 | -1.74 | 0.46 | -2.09 | -1.23 | – | 1.25 | -1.49 | -1.61 | -1.12 | -1.36 | 1.5 | -1.33 | – | –
